Reference: article PMC4575080, “Biophysical Studies on BEX3, the p75^NTR-Associated Cell Death Executor, Reveal a High-Order Oligomer with Partially Folded Regions” (PLoS ONE, 2015)

B1: Brain Expressed X-linked protein 3 (BEX3) (natural protein, UniProt Q9WTZ9 1-124, looked up)
chain: MANVHQENEEMEQPLQNGQEDRPVGGGEGHQPAANNNNNNHNHNHNHHRRGQARRLAPNFRWAIPNRQMNDGLGGDGDDMEMFMEEMREIRRKLRELQLRNCLRILMGELSNHHDHHDEFCLMP
notes: BEX3 (NADE), cDNA encoding 'the mature BEX3' in pET21d; UniProt Q9WTZ9 is printed in the introduction for BEX3; High-order oligomer in native buffer; also called NADE; p75NTR-associated cell death executor
B2: death domain of p75NTR (amino acids 326 to 417) (domain or fragment, UniProt Q9Z0W1 326-417, looked up)
chain: TASGQALKGDGNLYSSLPLTKREEVEKLLNGDTWRHLAGELGYQPEHIDSFTHEACPVRALLASWGAQDSATLDALLAALRRIQRADIVESL
notes: neurotrophin receptor p75 (p75NTR), death domain, amino acids 326 to 417; UniProt Q9Z0W1 is printed in the introduction for p75NTR; For some experiments the His-tag was removed with TEV protease; also called p75NTR DD; His-p75NTR DD

Experiments:
[1] = molecular target: the molecule itself; assay: SDS-PAGE (SDS-resistant oligomer); refolded BEX3 on SDS-PAGE, before and after addition of 4 or 7 M urea to the sample loading buffer
[2] = molecular target: B1; assay: SPR; p75NTR DD (13 uM) amine-coupled to a CM5 chip (4,000 RU), Biacore X; BEX3 0.2-0.8 uM injected in Buffer A (25 mM MES pH 7.0, 150 mM NaCl, 6 mM beta-ME), 10 uL/min; global fit; apparent Kd = koff/kon; settings: both partners purified

Binder	stoichiometry N [1]	Kd [2]
B1	2	–
B2	–	550 nM
